For experiment [1], the target named is human HLA-G expressed on cells (JEG3 cells, natural; SKOV3 cells transfected with recombinant HLA-G) (human) (UniProt P17693). The experiment can be described thus: flow cytometry on JEG3 cells (natural HLA-G); isotype control; detection with goat anti-human IgG (H+L) Alexa 488. Background: Flow cytometry measures light scatter and fluorescence of single cells or particles in a stream.

Experiment [2] shares this target. The experiment can be described thus: flow cytometry on SKOV3 HLA-G cells (SKOV3 transfected with HLA-G); isotype control; detection with goat anti-human IgG (H+L) Alexa 488.

Take Isotype (antibody): the values for the MFI in experiment [1] and in experiment [2] were 57 and 78, respectively.

For the origin of these results see patent publication US20260265381A1.
